Paper PMC5150636, “Isolated pores dissected from human two-pore channel 2 are functional” (Scientific Reports, 2016)

Biological target: the molecule itself
Experiment: SEC; Superdex 200 10/300 GL, buffer A (25 mM Tris, 500 mM NaCl, 0.174% (w/v) DM, pH 7.4), 0.5 ml/min, column calibrated with protein standards; fractions read by SDS PAGE; oligomer size from the elution volume

B1: human TPC2 DI pore (S212-A337), hexa-histidine-tagged (domain or fragment, UniProt Q8NHX9 212-337, looked up)
chain: SLPEMASVGLLLAIHLCLFTMFGMLLFAGGKQDDGQDRERLTYFQNLPESLTSLLVLLTTANNPDVMIPAYSKNRAYAIFFIVFTVIGSLFLMNLLTAIIYSQFRGYLMKSLQTSLFRRRLGTRAA
notes: two-pore channel 2 (TPC2), human, domain I pore region (S5-S6), residues S212-A337, codon-optimised synthetic gene in pET15b; numbers count on the full length channel; No removal of the His tag is described; also called hexaHis-DI pore; DI pore-only protein
stoichiometry N: 4
